Read-outs that look alike come from different tables or passages of the source.
What was measured:
[1] = Whole blood stability, rat; type: in vitro ADME; settings: 37 °C, after two hours, read-out: percent remaining in whole blood
Description: (§1) Whole blood and plasma stability were determined for EC2629 and EC2491 at a concentration of 500 nM. Samples were extracted and analyzed using fit-for-purpose bioanalytical methods. EC2629 or EC2491 was spiked into 1 mL whole blood or plasma maintained at 37 °C for 30 min prior to use . Fifty µl aliquots were then removed at defined timepoints and stored in a 1.2 mL extraction plate prior to analysis. Samples were then extracted using protein precipitation with a 3:1 ratio of acetonitrile after addition of internal standard. The supernatant was then transferred to a new plate, evaporated, and reconstituted prior to LC–MS/MS analysis.

[2] = Plasma pharmacokinetics after intravenous EC2629 in rats; type: in vivo; settings: rat
Description: The plasma pharmacokinetics of EC2629 and metabolite EC2491 were evaluated following intravenous administration of EC2629 to male and female rats. The toxicokinetic phase of the study consisted of 5 groups with three animals/gender assigned to the control group, and nine animals/gender assigned to each of the treatment groups. […] Blood samples were collected from Group 0 at 10 min post-dose, and from Groups 1–4 at pre-dose, 2, 10, and 30 min and 1, 2, 8, 12, and 24 h post-dose. Plasma was prepared and analyzed for concentrations of EC2629 and metabolite EC2491. Mean plasma EC2629 and EC2491 concentration–time data for males and females, separately, of Groups 1–4 and were subjected to noncompartmental toxicokinetic evaluations and the results are summarized in Table S3.

Plasma stability, mouse = type: in vitro ADME; settings: 500 nM, 37 °C, 2 h
Description: as §1

[3] = Plasma protein binding (ultrafiltration), rat; type: in vitro ADME; settings: 37 °C
Description: (§2) Plasma ultrafiltration was used for determination of free and protein bound fractions of EC2629 and EC2491. Samples were extracted and analyzed using fit-for-purpose bioanalytical methods. Briefly, 500 nM EC2629 or EC2491 was spiked into plasma maintained at 37 °C prior to plasma ultrafiltration. Plasma spiked with 500 nM EC2629 or EC2491 was allowed to equilibrate at 37 °C for 30 min prior to processing. Next, 50 μL of plasma was transferred to a clean 1.2 mL plate stored at 2–8 °C for further processing. The remaining plasma sample volumes were transferred to 30 Kd MWCO PES filter to generate plasma ultrafiltrate by centrifugation at 10,000×g for 20 min. After which, 50 μL of each plasma ultrafiltrate was transferred to separate wells in a clean 1.2 mL plate. To all spiked plasma samples, 50 μL of blank plasma ultrafiltrate was added. 50 μL of blank plasma was added to all experimental ultrafiltrate samples. These blank matrix additions normalized the matrix effects for protein binding determination. Samples were then extracted using protein precipitation with a 3:1 ratio of acetonitrile after addition of internal standard. The supernatant transferred to a new plate, evaporated, and reconstituted prior to LC–MS/MS analysis.

[4] = Whole blood stability, mouse; type: in vitro ADME; settings: 500 nM, 37 °C, two hours, mouse blood
Description: as §1

[5] = Plasma protein binding (ultrafiltration), mouse; type: in vitro ADME; settings: 37 °C
Description: as §2

Plasma stability, rat = type: in vitro ADME; settings: 500 nM, 37 °C, 2 h
Description: as §1

[6] = 0.1 mg/kg, 0.10 mg/kg iv, female, Group 2
[7] = 0.1 mg/kg, 0.10 mg/kg iv, male, Group 2
[8] = 0.5 mg/kg, 0.50 mg/kg iv, female, Group 4
[9] = 0.5 mg/kg, 0.50 mg/kg iv, male, Group 4

C=C1C[C@H]2C=Nc3cc(OCCCCCOc4cc(N)c(C(=O)N5CC(=C)C[C@H]5C5OCCN5C(=O)OCC(C)(C)SSCCC(=O)NCCNC(=O)CCOCCOCCOCCOCCNC(=O)CCN5C(=O)CC(SC[C@H](NC(=O)[C@H](CC(=O)O)NC(=O)[C@H](CC(=O)O)NC(=O)[C@H](CCCNC(=N)N)NC(=O)[C@H](CC(=O)O)NC(=O)CC[C@H](NC(=O)c6ccc(NCc7cnc8nc(N)[nH]c(=O)c8n7)cc6)C(=O)O)C(=O)O)C5=O)cc4OC)c(OC)cc3C(=O)N2C1 (stereo partly drawn) [EC2629]
remaining at 2 h, 500 nM [1]: 75.1%
clearance ([2]; both sexes, across 0.05-0.50 mg/kg iv dose groups, males and females, read-out: Clearance (Cl), range): 1.51 to 2.9 mL/min/kg
Vd ([2]; both sexes, across 0.05-0.50 mg/kg iv dose groups, males and females, read-out: volume of distribution (Vz), range): 0.109 to 0.191 L/kg
AUC(0-inf) ([2]; 0.05 mg/kg iv, female, Group 1): 287 ng·h/mL
AUC(0-t) ([2]; 0.05 mg/kg iv, female, Group 1): 260 ng·h/mL
C0 ([2]; 0.05 mg/kg iv, female, Group 1): 662 ng/mL
Cmax ([2]; 0.05 mg/kg iv, female, Group 1): 545 ng/mL
Tmax ([2]; 0.05 mg/kg iv, female, Group 1): 1.98 min
half-life ([2]; 0.05 mg/kg iv, female, Group 1): 37.6 min
clearance ([2]; 0.05 mg/kg iv, female, Group 1, read-out: Cl (converted)): 2.9 mL/min/kg
Vd ([2]; 0.05 mg/kg iv, female, Group 1, read-out: Vz): 0.157 L/kg
AUC(0-inf) ([2]; 0.05 mg/kg iv, male, Group 1): 384 ng·h/mL
AUC(0-t) ([2]; 0.05 mg/kg iv, male, Group 1): 305 ng·h/mL
C0 ([2]; 0.05 mg/kg iv, male, Group 1): 669 ng/mL
Cmax ([2]; 0.05 mg/kg iv, male, Group 1): 595 ng/mL
Tmax ([2]; 0.05 mg/kg iv, male, Group 1): 1.98 min
half-life ([2]; 0.05 mg/kg iv, male, Group 1): 61.2 min
clearance ([2]; 0.05 mg/kg iv, male, Group 1, read-out: Cl (converted)): 2.17 mL/min/kg
Vd ([2]; 0.05 mg/kg iv, male, Group 1, read-out: Vz): 0.191 L/kg
AUC(0-inf) [2, 6]: 633 ng·h/mL
AUC(0-t) [2, 6]: 596 ng·h/mL
C0 [2, 6]: 1570 ng/mL
Cmax [2, 6]: 1330 ng/mL
Tmax [2, 6]: 1.98 min
half-life [2, 6]: 31.5 min
clearance ([2]; 0.1 mg/kg, 0.10 mg/kg iv, female, Group 2, read-out: Cl (converted)): 2.63 mL/min/kg
Vd ([2]; 0.1 mg/kg, 0.10 mg/kg iv, female, Group 2, read-out: Vz): 0.12 L/kg
AUC(0-inf) [2, 7]: 699 ng·h/mL
AUC(0-t) [2, 7]: 617 ng·h/mL
C0 [2, 7]: 1690 ng/mL
Cmax [2, 7]: 1390 ng/mL
Tmax [2, 7]: 1.98 min
half-life [2, 7]: 42.4 min
clearance ([2]; 0.1 mg/kg, 0.10 mg/kg iv, male, Group 2, read-out: Cl (converted)): 2.38 mL/min/kg
Vd ([2]; 0.1 mg/kg, 0.10 mg/kg iv, male, Group 2, read-out: Vz): 0.146 L/kg
AUC(0-inf) ([2]; 0.25 mg/kg iv, female, Group 3): 1750 ng·h/mL
AUC(0-t) ([2]; 0.25 mg/kg iv, female, Group 3): 1640 ng·h/mL
C0 ([2]; 0.25 mg/kg iv, female, Group 3): 3740 ng/mL
Cmax ([2]; 0.25 mg/kg iv, female, Group 3): 3230 ng/mL
Tmax ([2]; 0.25 mg/kg iv, female, Group 3): 1.98 min
half-life ([2]; 0.25 mg/kg iv, female, Group 3): 31.8 min
clearance ([2]; 0.25 mg/kg iv, female, Group 3, read-out: Cl (converted)): 2.38 mL/min/kg
Vd ([2]; 0.25 mg/kg iv, female, Group 3, read-out: Vz): 0.109 L/kg
AUC(0-inf) ([2]; 0.25 mg/kg iv, male, Group 3): 1930 ng·h/mL
AUC(0-t) ([2]; 0.25 mg/kg iv, male, Group 3): 1670 ng·h/mL
C0 ([2]; 0.25 mg/kg iv, male, Group 3): 4310 ng/mL
Cmax ([2]; 0.25 mg/kg iv, male, Group 3): 3580 ng/mL
Tmax ([2]; 0.25 mg/kg iv, male, Group 3): 1.98 min
half-life ([2]; 0.25 mg/kg iv, male, Group 3): 46.2 min
clearance ([2]; 0.25 mg/kg iv, male, Group 3, read-out: Cl (converted)): 2.15 mL/min/kg
Vd ([2]; 0.25 mg/kg iv, male, Group 3, read-out: Vz): 0.144 L/kg
AUC(0-inf) [2, 8]: 3540 ng·h/mL
AUC(0-t) [2, 8]: 3230 ng·h/mL
C0 [2, 8]: 7060 ng/mL
Cmax [2, 8]: 6070 ng/mL
Tmax [2, 8]: 1.98 min
half-life [2, 8]: 36.7 min
clearance ([2]; 0.5 mg/kg, 0.50 mg/kg iv, female, Group 4, read-out: Cl (converted)): 2.35 mL/min/kg
Vd ([2]; 0.5 mg/kg, 0.50 mg/kg iv, female, Group 4, read-out: Vz): 0.125 L/kg
AUC(0-inf) [2, 9]: 5510 ng·h/mL
AUC(0-t) [2, 9]: 5450 ng·h/mL
C0 [2, 9]: 8450 ng/mL
Cmax [2, 9]: 7080 ng/mL
Tmax [2, 9]: 1.98 min
half-life [2, 9]: 84 min
clearance ([2]; 0.5 mg/kg, 0.50 mg/kg iv, male, Group 4, read-out: Cl (converted)): 1.51 mL/min/kg
Vd ([2]; 0.5 mg/kg, 0.50 mg/kg iv, male, Group 4, read-out: Vz): 0.183 L/kg
plasma stability (Plasma stability, mouse): stable
fraction unbound at 30 min, 500 nM [3]: 0.026
whole blood stability [4]: no observed degradation
fraction unbound at 30 min, 500 nM [5]: 0.051
plasma stability (Plasma stability, rat): stable

— paper PMC7391724 (Scientific Reports, 2020)
